System: supplied fatty acids in S. cerevisiae strain W303
Test: Functional expression of PiELO1 in S. cerevisiae fed with fatty acids, GC of FAMEs
Type: cell-based, Saccharomyces cerevisiae
Description: The ORF encoding for PiELO1 was amplified using PfuUltra II fusion HS DNA polymerase (Stratagene, La Jolla, Calif.) with the forward primer, 5′-[…] (PUFAEL5RES1) (SEQ ID NO: 33), containing a restriction site (underlined) and a yeast translation consensus followed by ATG (double underlined) and the reverse primer 5′-[…] (PUFAEL3RES2) (SEQ ID NO: 34) containing a restriction site (underlined) and a stop codon (double underlined). The amplified sequence was then restricted with EcoRI and XbaI (NEB, Ipswich, Mass.). The expected bands were gel-purified with NucleoSpin Extract II purification kit (Machery-Nagel GmbH, Duren, Germany) and ligated into a EcoRI-Xba1 cut pYES2 vector, yielding YpPiELO1. Saccharomyces cerevisiae strain W303 was transformed with YpPiELO1 by the PEG/lithium acetate method. The yeast cells harboring the empty pYES2 vector were used as control. Transformants were selected by uracil prototrophy on yeast synthetic medium (YSM) lacking uracil (Invitrogen, Carlsbad, Calif.). For functional expression, a minimal selection medium containing 2% (w/v) raffinose was inoculated with the YpPiELO1-transformants and grown at 27° C. for 24 h in a water bath shaker. Five ml of sterile YSM, containing 1% (w/v) Tergitol-40 and 250 µM of the appropriate fatty acid was inoculated with raffinose-grown cultures to obtain an OD of 0.2 at 600 nm. Expression was induced by adding galactose to a final concentration of 2% (w/v) and cultures were further grown at 27° C. for 48 h. Cells were harvested by centrifugation, washed twice with 0.1% NaHCO3, freeze-dried and used for fatty acid analysis.
Fatty acid methyl esters (FAMES) were obtained by transmethylation of the freeze-dried P. incisa or yeast biomass, with dry methanol containing 2% H2SO4 (v/v) and heating at 80° C. for 1.5 h while stirring under an argon atmosphere. Gas chromatographic analysis of FAMES was performed on a Thermo Ultra Gas chromatograph (Thermo Scientific, Italy) equipped with PTV injector, FID detector and a fused silica capillary column (30 m×0.32 mm; ZB WAXplus, Phenomenex). FAMES were identified by co-chromatography with authentic standards (Sigma Chemical Co., St. Louis, Mo.; Larodan Fine Chemicals, Malmo, Sweden) and FAME of fish oil (Larodan Fine Chemicals). Each sample was analyzed in duplicates of three independent experiments. The structures of fatty acids were confirmed by GC-MS of their pyrrolidine derivatives [W. W. Christie, The analysis of fatty acids in: W. W. Christie (Ed.), Lipid analysis Isolation, separation, identification and structural analysis of lipids, vol. […]

B1: PiELO1: P. incisa Δ6 PUFA elongase, 289 amino acid residues, SEQ ID NO: 7 (protein, listed as Parietochloris incisa)
chain: MALTAAWHKYDAIVSRFVFDGLRRVGLQEIQGHPSVITAHLPFIASPTPQVTFVLAYLLIVVCGVAALRTRKSSAPREDPAWLRLLVQAHNLVLISLSAYMSSAACYYAWKYGYRFWGTNYSPKERDMGGLIYTFYVSKLYEFVDTLIMLLKGKVEQVSFLHVYHHASISTIWWAIAYVAPGGDAWYCCFLNSLVHVLMYTYYLLATLLGKDAKARRKYLWWGRYLTQFQMFQFVTMMLEAAYTWAYSPYPKFLSKLLFFYMITLLALFANFYAQKHGSSRAAKQKLQ
- elongation of supplied fatty acid (substrate 18:3ω6 (GLA), product DGLA, 20:3ω6): elongated
- elongation of supplied fatty acid (substrate 18:4ω3 (STA), product 20:4ω3): elongated
- elongation of supplied fatty acid (substrate ARA): did not result in their elongation
- elongation of supplied fatty acid (substrate LA): did not result in their elongation

Reference: patent US9315837B2, “Desaturases of a green microalga and uses thereof” (Ben Gurion University of the Negev Research and Development …, priority 2010, dated 2016)
